{
  "source": "patent US20170306033A1",
  "about": "(Amgen, published 2017)",
  "binders": {"B1": {"name": "iPS:327689 (bispecific antibody, human IgG1, kappa, lambda, N297G)", "light 1": "not shown", "heavy 1": "not shown", "light 2": "QSVLTQPPSVSAAPGQKVTISCSGSSSNIGNNYVSWYQQLPGTAPKLLIYDNNKRPSGIPDRFSGSKSGTSTTLGITGLQTGDEADYYCGTWDSRLSAVVFGGGTKLTVLGQPKANPTVTLFPPSSEELQANKATLVCLISDFYPGAVTVAWKADGSPVKAGVETTKPSKQSNNKYAAKSYLSLTPEQWKSHRSYSCQVTHEGSTVEKTVAPTECS", "heavy 2": "QVQLVESGGGVVQPGRSLRLSCAASGFTFSSFGMHWVRQAPGKGLEWVAVISFDGSIKYSVDSVKGRFTISRDNSKNTLFLQMNSLRAEDTAVYYCARDRLNYYESSGYYHYKYYGMAVWGQGTTVTVSSASTKGPSVFPLAPSSKSTSGGTAALGCLVKDYFPEPVTVSWNSGALTSGVHTFPAVLQSSGLYSLESVVTVPSSSLGTQTYICNVNHKPSNTKVDKKVEPKSCDKTHTCPPCPAPELLGGPSVFLFPPKPKDTLMISRTPEVTCVVVDVSHEDPEVKFNWYVDGVEVHNAKTKPCEEQYGSTYRCVSVLTVLHQDWLNGKEYKCKVSNKALPAPIEKTISKAKGQPREPQVYTLPPSRKEMTKNQVSLTCLVKGFYPSDIAVEWESNGQPENNYKTTPPVLKSDGSFFLYSKLTVDKSRWQQGNVFSCSVMHEALHNHYTQKSLSLSPGK"}, "B2": {"name": "iPS:327684 (bispecific antibody, human IgG1, kappa, N297G)", "light 1": "EIVLTQSPATLSLSPGERATLSCRASQSVGRSLHWYQQKPGQAPRLLIKYASQSLSGIPARFSGSGSGTDFTLTISSLEPEDFAVYYCHQSSRLPFTFGEGTKVDIKRTVAAPSVFIFPPSDEQLKSGTASVVCLLNNFYPREAKVQWKVDNALQSGNSQESVTEQDSKDSTYSLESTLTLSKADYEKHKVYACEVTHQGLSSPVTKSFNRGEC", "heavy 1": "not shown", "light 2": "EIVLTQSPGTLSLSPGERATLSCRASQSVSSGYLTWYQQKPGQAPRLLIYGASSRATGIPDRFSGSGSGTDFTLTISRLEPEDFAVYYCQQYGNSLSRFGKGTKLEIKRTVAAPSVFIFPPSDEQLKSGTASVVCLLNNFYPREAKVQWKVDNALQSGNSQESVTEQDSKDSTYSLKSTLTLSKADYEKHKVYACEVTHQGLSSPVTKSFNRGEC", "heavy 2": "QVQLVESGGGVVQPGRSLRLSCAASGFTFSSYGMHWVRQAPGKELEWVAVIWYDGSNKYYAESVKGRFIISRDKSKNTLYLQMNSLRAEDTAVYYCARAGGIAAAGLYYYYGMDVWGQGTTVTVSSASTKGPSVFPLAPSSKSTSGGTAALGCLVKDYFPEPVTVSWNSGALTSGVHTFPAVLQSSGLYSLESVVTVPSSSLGTQTYICNVNHKPSNTKVDKKVEPKSCDKTHTCPPCPAPELLGGPSVFLFPPKPKDTLMISRTPEVTCVVVDVSHEDPEVKFNWYVDGVEVHNAKTKPCEEQYGSTYRCVSVLTVLHQDWLNGKEYKCKVSNKALPAPIEKTISKAKGQPREPQVYTLPPSRKEMTKNQVSLTCLVKGFYPSDIAVEWESNGQPENNYKTTPPVLKSDGSFFLYSKLTVDKSRWQQGNVFSCSVMHEALHNHYTQKSLSLSPGK"}, "B3": {"name": "iPS:327685 (bispecific antibody, human IgG1, kappa, N297G)", "light 1": "not shown", "heavy 1": "not shown", "light 2": "B2 light 2 with K101Q", "heavy 2": "not shown"}, "B4": {"name": "iPS:327686 (bispecific antibody, human IgG1, kappa, N297G)", "light 1": "not shown", "heavy 1": "not shown", "light 2": "B2 light 2 with K101Q", "heavy 2": "not shown"}},
  "key": {"human CGRP receptor": {"biological_target": "human CGRP receptor (human, UniProt Q16602 23-461; O60894 27-148)", "sequence (Q16602 23-461 limits assumed, chain 1 of 2)": "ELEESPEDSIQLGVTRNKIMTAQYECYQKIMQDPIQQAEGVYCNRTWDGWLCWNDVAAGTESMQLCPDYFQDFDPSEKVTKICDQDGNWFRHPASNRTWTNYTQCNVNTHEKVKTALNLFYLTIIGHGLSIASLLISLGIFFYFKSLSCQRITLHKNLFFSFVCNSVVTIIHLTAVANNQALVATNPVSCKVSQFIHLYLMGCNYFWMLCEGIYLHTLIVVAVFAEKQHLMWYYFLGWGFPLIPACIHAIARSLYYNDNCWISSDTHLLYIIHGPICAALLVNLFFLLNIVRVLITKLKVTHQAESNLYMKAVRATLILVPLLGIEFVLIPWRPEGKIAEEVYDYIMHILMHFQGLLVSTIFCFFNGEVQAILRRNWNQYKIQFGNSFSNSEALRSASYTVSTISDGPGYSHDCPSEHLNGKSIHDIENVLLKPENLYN", "sequence (O60894 27-148 limits assumed, chain 2 of 2)": "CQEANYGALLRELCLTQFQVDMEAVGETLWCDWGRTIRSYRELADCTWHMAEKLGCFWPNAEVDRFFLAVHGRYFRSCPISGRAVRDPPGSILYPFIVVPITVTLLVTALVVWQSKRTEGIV", "assay": "cell-based or functional assay"}, "human PAC1 receptor": {"biological_target": "T1, human PAC1 receptor (human, UniProt P41586 21-468)", "T1 sequence": "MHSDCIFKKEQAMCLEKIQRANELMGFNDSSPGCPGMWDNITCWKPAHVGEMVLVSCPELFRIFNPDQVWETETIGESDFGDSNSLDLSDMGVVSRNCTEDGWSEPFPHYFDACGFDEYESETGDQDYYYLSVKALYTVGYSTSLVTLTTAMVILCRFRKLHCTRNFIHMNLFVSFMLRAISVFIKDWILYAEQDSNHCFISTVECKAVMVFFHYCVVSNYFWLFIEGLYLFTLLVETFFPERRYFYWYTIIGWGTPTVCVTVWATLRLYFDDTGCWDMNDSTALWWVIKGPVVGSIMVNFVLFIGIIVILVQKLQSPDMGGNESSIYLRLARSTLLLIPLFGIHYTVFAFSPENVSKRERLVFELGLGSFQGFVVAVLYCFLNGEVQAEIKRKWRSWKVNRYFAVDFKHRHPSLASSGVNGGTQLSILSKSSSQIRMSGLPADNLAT", "assay": "cell-based or functional assay"}},
  "note": "Changes are numbered by the printed parent chain.",
  "data": [
    {"binder": "B1", "values": [
      {"measurement": "% inhibition of human CGRPR", "setting": "human CGRP receptor", "value": 78, "unit": "%"},
      {"measurement": "% inhibition of human PAC1", "setting": "human PAC1 receptor", "value": 86, "unit": "%"}
    ]},
    {"binder": "B2", "values": [
      {"measurement": "% inhibition of human CGRPR", "setting": "human CGRP receptor", "value": 71, "unit": "%"},
      {"measurement": "% inhibition of human PAC1", "setting": "human PAC1 receptor", "value": 74, "unit": "%"}
    ]},
    {"binder": "B3", "values": [
      {"measurement": "% inhibition of human CGRPR", "setting": "human CGRP receptor", "value": 86, "unit": "%"},
      {"measurement": "% inhibition of human PAC1", "setting": "human PAC1 receptor", "value": 85, "unit": "%"}
    ]},
    {"binder": "B4", "values": [
      {"measurement": "% inhibition of human CGRPR", "setting": "human CGRP receptor", "value": 87, "unit": "%"},
      {"measurement": "% inhibition of human PAC1", "setting": "human PAC1 receptor", "value": 69, "unit": "%"}
    ]}
  ]
}
